Data on eight molecules can be found in US20260167699A1 (Chugai, published 2026).

In experiment [1] the target is T1, FcγRIa extracellular domain with C-terminal His tag (human, UniProt P12314 16-292).
T1 construct: extracellular domain
In words: SPR (Biacore), captured antibody, FcγR analyte, 1:1 Langmuir fit.

Experiment [2] concerns the target T2, FcγRIIa(R) extracellular domain with C-terminal His tag (human, UniProt P12318 34-217).
T2 construct: extracellular domain; polymorphic form R131; also called FcγRIIa R type
T2 sequence: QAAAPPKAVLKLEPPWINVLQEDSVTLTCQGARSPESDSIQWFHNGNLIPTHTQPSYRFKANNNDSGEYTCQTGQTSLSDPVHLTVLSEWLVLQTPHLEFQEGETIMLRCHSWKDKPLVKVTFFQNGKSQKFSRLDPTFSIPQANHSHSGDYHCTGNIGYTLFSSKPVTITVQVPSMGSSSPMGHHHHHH
The experiment is described as above.

Experiment [3] addresses T3, FcγRIIa(H) extracellular domain with C-terminal His tag (human, UniProt P12318 34-217).
T3 construct: extracellular domain; polymorphic form H131; also called FcγRIIa H type
T3 sequence: T2 sequence with R134H
Described as above.

Experiment [4] concerns the target T4, FcγRIIb extracellular domain with C-terminal His tag (human, UniProt P31994 43-217).
T4 construct: extracellular domain
T4 sequence: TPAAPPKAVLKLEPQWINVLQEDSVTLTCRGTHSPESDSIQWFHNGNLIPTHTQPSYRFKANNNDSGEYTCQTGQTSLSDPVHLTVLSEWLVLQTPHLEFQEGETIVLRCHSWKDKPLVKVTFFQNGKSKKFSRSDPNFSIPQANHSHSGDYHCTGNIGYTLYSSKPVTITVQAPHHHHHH
Described as above.

Experiment [5] addresses T5, FcγRIIIa(F) extracellular domain with C-terminal His tag (human, UniProt P08637 17-208).
T5 construct: extracellular domain; polymorphic form F158; also called FcγRIIIa F type
Described as above.

For experiment [6], the target named is T6, FcγRIIIa(V) extracellular domain with C-terminal His tag (human, UniProt P08637 17-208).
T6 construct: extracellular domain; polymorphic form V158; also called FcγRIIIa V type
T6 sequence (P08637 other isoform, or with tags, fused parts or gaps): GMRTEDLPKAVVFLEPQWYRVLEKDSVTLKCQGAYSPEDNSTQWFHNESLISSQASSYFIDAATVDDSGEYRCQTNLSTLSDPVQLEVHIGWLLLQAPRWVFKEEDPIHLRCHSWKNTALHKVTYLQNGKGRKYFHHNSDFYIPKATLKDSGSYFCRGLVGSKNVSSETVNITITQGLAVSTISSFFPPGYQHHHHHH
The experiment is described as above.

For experiment [7], the target named is T1, FcγRIa extracellular domain with …. The description is as above. The source holds these as a separate data set.
Method: (§1) The antibody of interest was analyzed for its interaction with FcγR using a BiaCore™ T100, BiaCore™ A100, or BiaCore™ 4000 surface plasmon resonance system (GE Healthcare Japan Corp.). The running buffer used was HBS-EP+ (GE Healthcare Japan Corp.). The assay temperature was set to 25° C. The sensor chips used were: a chip prepared by immobilizing antigenic peptides onto Series S Sensor Chip CM5 (GE Healthcare Japan Corp.) by the amine coupling method; a chip prepared by immobilizing antigenic peptides biotinylated in advance onto Series S Sensor Chip SA (certified) (GE Healthcare Japan Corp.) through their interaction; a chip prepared by immobilizing protein L (ACTIGEN, BioVision, Inc.) onto Series S Sensor Chip CM5 (GE Healthcare Japan Corp.); and a chip prepared by immobilizing protein A/G (Thermo Fisher Scientific K.K.) onto Series S Sensor Chip CM5 (GE Healthcare Japan Corp.). The antibody of interest was captured onto any of these chips and allowed to interact with FcγR diluted with a running buffer. The antibody captured on the chip was washed off through the reaction of 10 mM glycine-HCl (pH 1.5) to regenerate the chip, which was repetitively used.
Experiment [8] has as its target T2, FcγRIIa(R) extracellular domain with …. The experiment is described as above. This is another data set of the same source.
Method: as §1
In experiment [9] the target is T3, FcγRIIa(H) extracellular domain with …. The experiment is described as above. This is another data set of the same source.
Method: as §1
For experiment [10], the target named is T4, FcγRIIb extracellular domain with …. The experiment is described as above. The source holds these as a separate data set.
Method: as §1
For experiment [11], the target named is T5, FcγRIIIa(F) extracellular domain with …. The description is as above. This is another data set of the same source.
Method: as §1
The target in experiment [12] is T6, FcγRIIIa(V) extracellular domain with …. Described as above. This is another data set of the same source.
Method: as §1
For experiment [13], the target named is T7, FcγRIIIa (human, UniProt P08637 17-208).
T7 construct: extracellular domain; also called 3a
Put plainly: SPR (Biacore T100), antibody captured on protein L chip, FcγRIIIa as analyte, TBS(+), 25 C, 1:1 Langmuir fit.
T7 sequence (P08637 other isoform, or with tags, fused parts or gaps): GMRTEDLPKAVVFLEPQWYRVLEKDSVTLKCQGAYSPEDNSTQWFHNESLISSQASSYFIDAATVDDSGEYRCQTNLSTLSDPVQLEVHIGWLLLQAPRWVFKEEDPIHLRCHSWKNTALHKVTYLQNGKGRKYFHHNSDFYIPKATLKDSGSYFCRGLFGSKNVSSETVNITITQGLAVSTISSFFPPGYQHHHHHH
Method: Specifically, their interaction with FcγRIIIa was analyzed using BiaCore™ T100 surface plasmon resonance system (GE Healthcare Japan Corp.). The running buffer used was the TBS(+) solution used in the preceding paragraph. The assay temperature was set to 25° C. Protein L was immobilized onto Series S Sensor Chip CM4 (GE Healthcare Japan Corp.) by the amine coupling method to prepare a chip. Each antibody of interest was captured onto the protein L-immobilized chip and allowed to interact with FcγRIIIa diluted with a running buffer. The antibody captured on the chip was washed off through the reaction of 10 mM glycine-HCl (pH 1.5) to regenerate the chip, which was repetitively used.
Each antibody was evaluated for its binding activity against FcγRIIIa with binding activity against FcγRIIIa and dissociation constant for FcγRIIIa as main indexes. […] Specifically, a sensorgram obtained by assay using BiaCore™ surface plasmon resonance Evaluation Software was globally fit into the 1:1 Langmuir model to calculate an association rate constant ka (L/mol/s) and a dissociation rate constant kd (1/s). From these values, the dissociation constant KD (mol/L) was calculated.

The next experiment concerns the target T8, FcγRIIIaV (human, UniProt P08637 17-208).
T8 construct: extracellular domain
In words: SPR (Biacore), antibody captured, FcγR as analyte, 1:1 Langmuir fit.

In another experiment the target is T9, FcγRIa (human, UniProt P12314 16-292).
T9 construct: extracellular domain; also called 1a
T9 sequence (P12314 other isoform, or with tags, fused parts or gaps): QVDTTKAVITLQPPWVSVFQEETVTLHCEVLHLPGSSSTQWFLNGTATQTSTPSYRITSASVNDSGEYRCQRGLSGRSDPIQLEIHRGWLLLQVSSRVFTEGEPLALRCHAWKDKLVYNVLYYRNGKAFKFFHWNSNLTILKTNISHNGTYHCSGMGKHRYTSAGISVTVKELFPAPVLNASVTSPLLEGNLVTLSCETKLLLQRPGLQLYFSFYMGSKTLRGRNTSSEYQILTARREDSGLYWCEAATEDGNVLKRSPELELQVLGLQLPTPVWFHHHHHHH
Put plainly: SPR, relative to GpH7-A5/GpH7-B3/GpL16-k0 =100.

The next experiment concerns the target T10, FcγRIIa(R) (human, UniProt P12318 34-217).
T10 construct: extracellular domain; also called 2aR
T10 sequence: T2 sequence
Put plainly: SPR, relative to GpH7-A5/GpH7-B3/GpL16-k0 =100.

In the next experiment the target is T11, FcγRIIa(H) (human, UniProt P12318 34-217).
T11 construct: extracellular domain; also called 2aH
T11 sequence: T2 sequence with R134H
In words: SPR, relative to GpH7-A5/GpH7-B3/GpL16-k0 =100.

The target of the next experiment is T12, FcγRIIb (human, UniProt P31994 43-217).
T12 construct: extracellular domain; also called 2b
T12 sequence: T4 sequence
In words: SPR, relative to GpH7-A5/GpH7-B3/GpL16-k0 =100.

Experiment [14] addresses T13, FcγRIIIa (human, UniProt P08637 17-208).
T13 construct: extracellular domain; also called 3a
Put plainly: SPR, relative to GpH7-A5/GpH7-B3/GpL16-k0 =100.

Residue numbers refer to the chain shown, from its start. Like-named read-outs stand apart in the source and are kept apart here.

T1 sequence (P12314 other isoform, or with tags, fused parts or gaps): as above
Method for FcγRIIIaV: as §1

B1: H240-Kn033/H240-Hl033/L73-k0 (antibody, human IgG1, kappa)
heavy 1: not shown
heavy 2: not shown
light: DIQMTQSPSSLSASVGDRVTITCRASQDIHKYIAWYQQKPGQAPRLLIQYTSTLQPGVPSRFSGSGSGTDYTFTISSLQPEDIATYYCLQYEQLRTFGGGTKVEIKRTVAAPSVFIFPPSDEQLKSGTASVVCLLNNFYPREAKVQWKVDNALQSGNSQESVTEQDSKDSTYSLSSTLTLSKADYEKHKVYACEVTHQGLSSPVTKSFNRGEC
notes: anti-epiregulin IgG1, knobs-into-holes control; also called H240-Kn033/H240-HI033/L73-k0
With B1, the Kd in [1] was 0.25 nM; in experiment [2], 1000 nM; in [3], 930 nM; in [4], 4100 nM; in experiment [5] it was 2600 nM; in experiment [6], 390 nM. In addition, the Kd in experiment [7] was 0.25 nM; in experiment [8], 1000 nM; in experiment [9], 930 nM; in experiment [10] it was 4100 nM; in experiment [11], 2600 nM; in experiment [12] it was 390 nM.

B2: H240-Kn125-ma1/H240-Hl076/L73 (antibody, human IgG1, kappa)
heavy 1: QDQLVQSGAEVKKPGASVKVSCKASGFNIKDTYIQWVRQAPGQGLEWMGRIDPLRKQTKYREKFEGRVTITADTSTNTAYMELSSLRSEDTAVYYCVRSGREFDYWGQGTLVTVSSASTKGPSVFPLAPSSKSTSGGTAALGCLVKDYFPEPVTVSWNSGALTSGVHTFPAVLQSSGLYSLSSVVTVPSSSLGTQTYICNVNHKPSNTKVDKKVEPKSCDKTHTCPPCPAPELLGGPSVFLFPPKPKDTLMISRTPEVTCVVVDVSHEEPEVKFNWYVDGVEVHNAKTKPREEQYNSTYRVVSVLTVLHQDWLNGKEYKCKVSNDALPMPIEETISKAKGQPREPQVYTLPPSRCELTKNQVSLSCAVKGFYPSDIAVEWESNGQPENNYKTTPPVLDSDGSFFLVSKLTVDKSRWQQGNVFSCSVMHEALHNHYTQKSLSLSP
heavy 2: QDQLVQSGAEVKKPGASVKVSCKASGFNIKDTYIQWVRQAPGQGLEWMGRIDPLRKQTKYREKFEGRVTITADTSTNTAYMELSSLRSEDTAVYYCVRSGREFDYWGQGTLVTVSSASTKGPSVFPLAPSSKSTSGGTAALGCLVKDYFPEPVTVSWNSGALTSGVHTFPAVLQSSGLYSLSSVVTVPSSSLGTQTYICNVNHKPSNTKVDKKVEPKSCDKTHTCPPCPAPEYQWGPMVFLFPPKPKDTLMISRTPEVTCVVVDVSGCRGDCLEPEVKFNWYVDGVEVHNAKTKPREEQYNATYRVVSVLTVLHQDWLNGKEYKCKVSNKALPAPIEKTISKAKGQPREPQVCTLPPSRDELTKNQVSLWCLVKGFYPSDIAVEWESNGQPENNYKTTPPVLDSDGSFFLYSKLTVDKSRWQQGNVFSCSVMHEALHNHYTQKSLSLSP
light: B1 light
notes: heterodimerized anti-EREG antibody with the RGD peptide inserted in a loop region of the H240-Kn125 chain; also called H240-Kn125-ma1/H240-HI076/L73
On to B2, for which the Kd in the experiment with FcγRIIIa [13] worked out at 160 nM.

B3: H240-G1dE/H240-G1dE/L73 (antibody, human IgG1, kappa)
heavy: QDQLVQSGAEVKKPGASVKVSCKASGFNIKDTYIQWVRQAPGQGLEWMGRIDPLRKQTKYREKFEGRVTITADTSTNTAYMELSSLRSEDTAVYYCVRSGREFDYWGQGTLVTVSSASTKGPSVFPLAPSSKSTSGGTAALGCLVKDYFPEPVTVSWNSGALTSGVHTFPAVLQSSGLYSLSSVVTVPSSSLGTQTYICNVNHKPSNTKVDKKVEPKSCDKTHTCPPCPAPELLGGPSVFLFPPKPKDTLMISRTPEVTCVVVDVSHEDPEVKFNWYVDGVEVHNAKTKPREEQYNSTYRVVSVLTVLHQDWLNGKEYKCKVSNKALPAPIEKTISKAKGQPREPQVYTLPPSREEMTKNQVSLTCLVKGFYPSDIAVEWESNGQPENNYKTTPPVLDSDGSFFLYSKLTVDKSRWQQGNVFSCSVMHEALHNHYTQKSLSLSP
light: B1 light
notes: anti-EREG antibody with constant regions derived from human natural IgG1; also called IgG1; naturally occurring IgG1
For B3, the Kd with FcγRIIIaV stood at 340 nM; with FcγRIIIa [13], 290 nM.

B4: H240-Kn125/H240-Hl076/L73-k0 (antibody, human IgG1, kappa)
heavy 1: QDQLVQSGAEVKKPGASVKVSCKASGFNIKDTYIQWVRQAPGQGLEWMGRIDPLRKQTKYREKFEGRVTITADTSTNTAYMELSSLRSEDTAVYYCVRSGREFDYWGQGTLVTVSSASTKGPSVFPLAPSSKSTSGGTAALGCLVKDYFPEPVTVSWNSGALTSGVHTFPAVLQSSGLYSLSSVVTVPSSSLGTQTYICNVNHKPSNTKVDKKVEPKSCDKTHTCPPCPAPEYQWGPMVFLFPPKPKDTLMISRTPEVTCVVVDVSDEEPEVKFNWYVDGVEVHNAKTKPREEQYNATYRVVSVLTVLHQDWLNGKEYKCKVSNKALPAPIEKTISKAKGQPREPQVCTLPPSRDELTKNQVSLWCLVKGFYPSDIAVEWESNGQPENNYKTTPPVLDSDGSFFLYSKLTVDKSRWQQGNVFSCSVMHEALHNHYTQKSLSLSP
heavy 2: B2 heavy 1
light: B1 light
notes: heterodimerized anti-epiregulin IgG1
On to B4, for which the Kd is 0.24 nM in [7]; 380 nM in experiment [8]; 190 nM in experiment [9]; 4200 nM in [10]; 1.2 nM in experiment [11]; 0.37 nM in [12].

B5: GpH7-A5/GpH7-B3 variant A327_01G/GpL16-k0 (antibody, human IgG1, kappa)
heavy 1: not shown
heavy 2: not shown
light: DIVMTQSPLSLPVTPGEPASISCQASESLVHSNRNTYLHWYLQKPGQSPQLLIYKVSNRFSGVPDRFSGSGSGTDFTLKISRVEAEDVGVYYCSQNTHVPPTFGQGTKVEIERTVAAPSVFIFPPSDEQLKSGTASVVCLLNNFYPREAKVQWKVDNALQSGNSQESVTEQDSKDSTYSLSSTLTLSKADYEKHKVYACEVTHQGLSSPVTKSFNRGEC
notes: He Ab: heterodimerized IgG1, one H chain mutated
Consider B5, for which, in the experiment with FcγRIa, the “He/Con 1a” value was found to be 101%. For the same molecule, in the experiment with FcγRIIa(R), the “He/Con 2aR” value came to 126%. Besides, in the experiment with FcγRIIa(H), the “He/Con 2aH” value is 115%. In the experiment with FcγRIIb, the “He/Con 2b” value worked out at 144%. Further, the “He/Con 3a” value with FcγRIIIa [14] stood at 74.4%.

B6: GpH7-A5/GpH7-B3 variant S324_05P/GpL16-k0 (antibody, human IgG1, kappa)
heavy 1: not shown
heavy 2: not shown
light: B5 light
notes: as for B5
On to B6, for which the “He/Con 1a” value with FcγRIa came to 97.8%. The “He/Con 2aR” value with FcγRIIa(R) came to 94.6%. The “He/Con 2aH” value with FcγRIIa(H) amounted to 57.8%. In addition, in the experiment with FcγRIIb, the “He/Con 2b” value amounted to 106%. In the experiment with FcγRIIIa [14], the “He/Con 3a” value is 72.3%.

B7: GpH7-A5/GpH7-B3 variant L328_10E/GpL16-k0 (antibody, human IgG1, kappa)
heavy 1: not shown
heavy 2: not shown
light: B5 light
notes: as for B5
With B7, the “He/Con 1a” value with FcγRIa turned out to be 104%. Besides, the “He/Con 2aR” value with FcγRIIa(R) was determined as 136%. Besides, the “He/Con 2aH” value with FcγRIIa(H) was found to be 65.7%. In addition, the “He/Con 2b” value with FcγRIIb came out at 215%. Moreover, the “He/Con 3a” value with FcγRIIIa [14] amounted to 54.9%.

B8: GpH7-A5/GpH7-B3 variant S324_20W/GpL16-k0 (antibody, human IgG1, kappa)
heavy 1: not shown
heavy 2: not shown
light: B5 light
notes: as for B5
On to B8, for which the “He/Con 1a” value in the experiment with FcγRIa is 108%. The “He/Con 2aR” value with FcγRIIa(R) was 106%. In the experiment with FcγRIIa(H), the “He/Con 2aH” value was 114%. Also, in the experiment with FcγRIIb, the “He/Con 2b” value worked out at 114%. The “He/Con 3a” value in the experiment with FcγRIIIa [14] came to 111%.
